{
  "source": "patent US20130288275A1",
  "about": "“COMPOSITIONS AND METHODS FOR DETECTING ACETYLATED SUMO PROTEINS” (Georgetown University, priority 2010, published 2013)",
  "system": "H1299 cells",
  "test": "Cell cycle analysis by flow cytometry",
  "format": "cell-based, human",
  "details": "H1299 cells infected with adenovirus expressing p53, 72 hours after infection",
  "procedure": "FIG. 5. […] 72 hours after infection, cells were harvested and their cell cycle profile was analyzed (see materials and methods). B-C.\nFlow cytometry was performed as described previously by Knights, C. D., et al. J. Cell Biol. 173(4):533-544 (2006).",
  "data": [
    {"molecule": "SUMO-1K37-48R: SUMO-1 mutant with lysines K37-K39 and K45, K46 and K48 substituted with arginine (protein, UniProt P63165 2-97, looked up, variant K37R K39R K45R K46R K48R) Small ubiquitin-related …: SDQEAKPSTEDLGDKKEGEYIKLKVIGQDSSEIHFRVRMTTHLRRLRESYCQRQGVPMNSLRFLFEGQRIADNHTPKELGMEEEDVIEVYQEQTGG", "values": [
      {"measurement": "apoptotic cells", "value": "~2", "unit": "%"}
    ]}
  ]
}
